Measurements: patent US20150344580A1 (MSM PROTEIN TECHNOLOGIES, published 2015)

T1: human chemokine receptor CCR7 (human, UniProt P32248 25-378)
T1 construct: On CHO, BHK, R1610 and Chem-1 transfectants and, natively, on human PBMC and the leukemia lines JVM-13 and CLL-AAT; also called human CCR7; hCCR7
T1 sequence: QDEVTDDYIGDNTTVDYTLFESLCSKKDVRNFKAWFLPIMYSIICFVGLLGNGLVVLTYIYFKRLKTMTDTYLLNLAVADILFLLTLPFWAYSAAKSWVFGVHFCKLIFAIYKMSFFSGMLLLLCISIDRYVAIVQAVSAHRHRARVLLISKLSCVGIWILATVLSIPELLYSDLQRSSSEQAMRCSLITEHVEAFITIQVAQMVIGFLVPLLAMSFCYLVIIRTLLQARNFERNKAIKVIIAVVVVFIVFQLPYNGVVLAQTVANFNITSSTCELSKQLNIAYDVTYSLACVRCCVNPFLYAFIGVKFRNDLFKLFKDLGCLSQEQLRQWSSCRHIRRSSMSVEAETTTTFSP

T2: human CD22 (human, UniProt P20273 20-847)
T2 sequence (looked up): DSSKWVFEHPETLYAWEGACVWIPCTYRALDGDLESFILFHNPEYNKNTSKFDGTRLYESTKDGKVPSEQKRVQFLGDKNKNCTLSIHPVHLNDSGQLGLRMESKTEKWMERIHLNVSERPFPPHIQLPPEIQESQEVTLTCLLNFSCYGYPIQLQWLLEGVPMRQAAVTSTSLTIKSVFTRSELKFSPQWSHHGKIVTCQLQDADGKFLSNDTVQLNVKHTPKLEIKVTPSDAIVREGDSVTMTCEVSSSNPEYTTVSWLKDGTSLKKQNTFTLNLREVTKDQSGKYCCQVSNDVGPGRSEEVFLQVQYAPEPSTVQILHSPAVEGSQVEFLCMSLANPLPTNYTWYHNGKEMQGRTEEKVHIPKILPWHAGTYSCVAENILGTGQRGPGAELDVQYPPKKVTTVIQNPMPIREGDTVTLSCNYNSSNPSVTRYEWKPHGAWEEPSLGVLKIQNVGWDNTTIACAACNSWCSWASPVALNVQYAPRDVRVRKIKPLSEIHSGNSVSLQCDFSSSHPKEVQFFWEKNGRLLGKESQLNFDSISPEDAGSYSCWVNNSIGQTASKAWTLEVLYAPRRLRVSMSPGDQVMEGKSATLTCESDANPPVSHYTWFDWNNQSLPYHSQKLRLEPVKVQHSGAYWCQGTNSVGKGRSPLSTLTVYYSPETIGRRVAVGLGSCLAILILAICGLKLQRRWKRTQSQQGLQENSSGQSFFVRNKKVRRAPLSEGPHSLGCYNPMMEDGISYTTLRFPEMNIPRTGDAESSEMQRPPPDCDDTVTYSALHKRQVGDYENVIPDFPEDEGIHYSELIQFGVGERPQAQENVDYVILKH


Assays:
[1] = biological target: T1, human chemokine receptor CCR7; experiment: IgG1 of Table 16 on human CCR7-expressing cells
[2] = biological target: T1, human chemokine receptor CCR7; experiment: flow cytometry titration, CHO-human CCR7 cells, anti-human Fc-PE
Experimental: The affinity of IgG1 antibodies to human CCR7 was evaluated by measuring mean fluorescence value (MFI) of cells expressing CCR7 in the presence of varying concentration of antibody in question, upon staining of bound to the cells antibodies with a commercial anti-human antibody-PE conjugate. The data of such experiments are depicted in FIGS. 9, 10, and 11. In these experiments binding of some antibodies to parental cells or cells expressing mouse CCR7 was also quantitatively characterized by obtaining EC₅₀ value (a concentration of IgG1 at which half-maximum MFI is achieved) for each curve using the SoftMaxPro5 program.

[3] = biological target: T2, human CD22; experiment: cell-based or functional assay
[4] = biological target: T1, human chemokine receptor CCR7; experiment: cell-based or functional assay
[5] = biological target: T1, human chemokine receptor CCR7; experiment: flow cytometry titration on CCR7 over-expressing cells (direct binding, printed as IC50)

Binder	binding result [1]	also measured
R707MSF (MSM-R707 HC CDR3 mutant, IgG1) (antibody, V domains shown, IgG1) VH: EVQLLESGGGLVQPGGSLRLSCAASGFTFSNYAIHWVRQAPGKGLEWVSAITPRGGYTYYADSVKGRFTISRDNSKNTLYLQMNSLRAEDTAVYYCARGLTMSYTPGFDYWGQGTLVTVSS VL: not shown	binds	–
MSM-R707BL (fully human anti-human CCR7 antibody, IgG1) (antibody, V domains shown, IgG1 format; HC CDR3 derivative of MSM-R707) VH: EVQLLESGGGLVQPGGSLRLSCAASGFTFSNYAIHWVRQAPGKGLEWVSAITPRGGYTYYADSVKGRFTISRDNSKNTLYLQMNSLRAEDTAVYYCARGLTLSYTPGFDYWGQGTLVTVSS VL: not shown	–	EC50 [2]: 2.6 nM
R707FMF (MSM-R707 HC CDR3 mutant, IgG1) (antibody, V domains shown, IgG1) VH: EVQLLESGGGLVQPGGSLRLSCAASGFTFSNYAIHWVRQAPGKGLEWVSAITPRGGYTYYADSVKGRFTISRDNSKNTLYLQMNSLRAEDTAVYYCARGLTFMYTPGFDYWGQGTLVTVSS VL: not shown	binds	–
R707LMF (MSM-R707 HC CDR3 mutant, IgG1) (antibody, V domains shown, IgG1) VH: EVQLLESGGGLVQPGGSLRLSCAASGFTFSNYAIHWVRQAPGKGLEWVSAITPRGGYTYYADSVKGRFTISRDNSKNTLYLQMNSLRAEDTAVYYCARGLTLMYTPGFDYWGQGTLVTVSS VL: not shown	binds	–
R707MLF (MSM-R707 HC CDR3 mutant, IgG1) (antibody, V domains shown, IgG1) VH: EVQLLESGGGLVQPGGSLRLSCAASGFTFSNYAIHWVRQAPGKGLEWVSAITPRGGYTYYADSVKGRFTISRDNSKNTLYLQMNSLRAEDTAVYYCARGLTMLYTPGFDYWGQGTLVTVSS VL: not shown	binds	–
R707MGF (MSM-R707 HC CDR3 mutant, IgG1) (antibody, V domains shown, IgG1) VH: EVQLLESGGGLVQPGGSLRLSCAASGFTFSNYAIHWVRQAPGKGLEWVSAITPRGGYTYYADSVKGRFTISRDNSKNTLYLQMNSLRAEDTAVYYCARGLTMGYTPGFDYWGQGTLVTVSS VL: not shown	binds	–
R707NMF (MSM-R707 HC CDR3 mutant, IgG1) (antibody, V domains shown, IgG1) VH: EVQLLESGGGLVQPGGSLRLSCAASGFTFSNYAIHWVRQAPGKGLEWVSAITPRGGYTYYADSVKGRFTISRDNSKNTLYLQMNSLRAEDTAVYYCARGLTNMYTPGFDYWGQGTLVTVSS VL: not shown	binds	–
MSM-R707BR (fully human anti-human CCR7 antibody, IgG1) (antibody, V domains shown, IgG1 format; HC CDR3 derivative of MSM-R707) VH: EVQLLESGGGLVQPGGSLRLSCAASGFTFSNYAIHWVRQAPGKGLEWVSAITPRGGYTYYADSVKGRFTISRDNSKNTLYLQMNSLRAEDTAVYYCARGLTRSYTPGFDYWGQGTLVTVSS VL: not shown	–	EC50 [2]: 1.9 nM
R707SMF (MSM-R707 HC CDR3 mutant, IgG1) (antibody, V domains shown, IgG1) VH: EVQLLESGGGLVQPGGSLRLSCAASGFTFSNYAIHWVRQAPGKGLEWVSAITPRGGYTYYADSVKGRFTISRDNSKNTLYLQMNSLRAEDTAVYYCARGLTSMYTPGFDYWGQGTLVTVSS VL: not shown	binds	–
R707KMF (MSM-R707 HC CDR3 mutant, IgG1) (antibody, V domains shown, IgG1) VH: EVQLLESGGGLVQPGGSLRLSCAASGFTFSNYAIHWVRQAPGKGLEWVSAITPRGGYTYYADSVKGRFTISRDNSKNTLYLQMNSLRAEDTAVYYCARGLTKMYTPGFDYWGQGTLVTVSS VL: not shown	binds	–
R707TMF (MSM-R707 HC CDR3 mutant, IgG1) (antibody, V domains shown, IgG1) VH: EVQLLESGGGLVQPGGSLRLSCAASGFTFSNYAIHWVRQAPGKGLEWVSAITPRGGYTYYADSVKGRFTISRDNSKNTLYLQMNSLRAEDTAVYYCARGLTTMYTPGFDYWGQGTLVTVSS VL: not shown	binds	–
R707MPF (MSM-R707 HC CDR3 mutant, IgG1) (antibody, V domains shown, IgG1) VH: EVQLLESGGGLVQPGGSLRLSCAASGFTFSNYAIHWVRQAPGKGLEWVSAITPRGGYTYYADSVKGRFTISRDNSKNTLYLQMNSLRAEDTAVYYCARGLTMPYTPGFDYWGQGTLVTVSS VL: not shown	binds	–
R707MRF (MSM-R707 HC CDR3 mutant, IgG1) (antibody, V domains shown, IgG1) VH: EVQLLESGGGLVQPGGSLRLSCAASGFTFSNYAIHWVRQAPGKGLEWVSAITPRGGYTYYADSVKGRFTISRDNSKNTLYLQMNSLRAEDTAVYYCARGLTMRYTPGFDYWGQGTLVTVSS VL: not shown	binds	–
R707RMF (MSM-R707 HC CDR3 mutant, IgG1) (antibody, V domains shown, IgG1) VH: EVQLLESGGGLVQPGGSLRLSCAASGFTFSNYAIHWVRQAPGKGLEWVSAITPRGGYTYYADSVKGRFTISRDNSKNTLYLQMNSLRAEDTAVYYCARGLTRMYTPGFDYWGQGTLVTVSS VL: not shown	binds	–
R707WMF (MSM-R707 HC CDR3 mutant, IgG1) (antibody, V domains shown, IgG1) VH: EVQLLESGGGLVQPGGSLRLSCAASGFTFSNYAIHWVRQAPGKGLEWVSAITPRGGYTYYADSVKGRFTISRDNSKNTLYLQMNSLRAEDTAVYYCARGLTWMYTPGFDYWGQGTLVTVSS VL: not shown	binds	–
R707IMF (MSM-R707 HC CDR3 mutant, IgG1) (antibody, V domains shown, IgG1) VH: EVQLLESGGGLVQPGGSLRLSCAASGFTFSNYAIHWVRQAPGKGLEWVSAITPRGGYTYYADSVKGRFTISRDNSKNTLYLQMNSLRAEDTAVYYCARGLTIMYTPGFDYWGQGTLVTVSS VL: not shown	binds	–
R707MAF (MSM-R707 HC CDR3 mutant, IgG1) (antibody, V domains shown, IgG1) VH: EVQLLESGGGLVQPGGSLRLSCAASGFTFSNYAIHWVRQAPGKGLEWVSAITPRGGYTYYADSVKGRFTISRDNSKNTLYLQMNSLRAEDTAVYYCARGLTMAYTPGFDYWGQGTLVTVSS VL: not shown	binds	–
R707MVF (MSM-R707 HC CDR3 mutant, IgG1) (antibody, V domains shown, IgG1) VH: EVQLLESGGGLVQPGGSLRLSCAASGFTFSNYAIHWVRQAPGKGLEWVSAITPRGGYTYYADSVKGRFTISRDNSKNTLYLQMNSLRAEDTAVYYCARGLTMVYTPGFDYWGQGTLVTVSS VL: not shown	binds	–
R707MQF (MSM-R707 HC CDR3 mutant, IgG1) (antibody, V domains shown, IgG1) VH: EVQLLESGGGLVQPGGSLRLSCAASGFTFSNYAIHWVRQAPGKGLEWVSAITPRGGYTYYADSVKGRFTISRDNSKNTLYLQMNSLRAEDTAVYYCARGLTMQYTPGFDYWGQGTLVTVSS VL: not shown	binds	–
R707MTF (MSM-R707 HC CDR3 mutant, IgG1) (antibody, V domains shown, IgG1) VH: EVQLLESGGGLVQPGGSLRLSCAASGFTFSNYAIHWVRQAPGKGLEWVSAITPRGGYTYYADSVKGRFTISRDNSKNTLYLQMNSLRAEDTAVYYCARGLTMTYTPGFDYWGQGTLVTVSS VL: not shown	binds	–
mouse anti-human CD22 monoclonal antibody (antibody, V domains shown) VH: QVQLQQSGAELVKPGASVKMSCKASGYTFTSYWLHWIKQRPGQGLEWIGYINPRNDYTEYNQKFKDKATLTADKSSSTAYMQLSSLTSEDSAVYYCARRDITTFYWGQGTTLTVSS VL: DIQLTQSPSSLAVSAGENVTMSCKSSQSVLYSANHKNYLAWYQQKPGQSPKLLIYWASTRESGVPDRFTGSGSGTDFTLTISRVQVEDLAIYYCHQYLSSWTFGGGTKLEIK	–	EC50 of cell killing with mouse Fab-ZAP, CLL-AAT cells [3]: 0.06 nM; EC50 of cell killing with mouse Fab-ZAP, JVM-13 cells [3]: 0.5 nM
MSM R707 in IgG4 format (antibody, also called IgG4 R707; IgG4 formatted MSM R707) heavy: EVQLLESGGGLVQPGGSLRLSCAASGFTFSNYAIHWVRQAPGKGLEWVSAITPRGGYTYYADSVKGRFTISRDNSKNTLYLQMNSLRAEDTAVYYCARGLTMMYTPGMDYWGQGTLVTVSSASTKGPSVFPLAPCSRSTSESTAALGCLVKDYFPEPVTVSWNSGALTSGVHTFPAVLQSSGLYSLSSVVTVPSSSLGTKTYTCNVDHKPSNTKVDKRVESKYGPPCPSCPAPEFLGGPSVFLFPPKPKDTLMISRTPEVTCVVVDVSQEDPEVQFNWYVDGVEVHNAKTKPREEQFNSTYRVVSVLTVLHQDWLNGKEYKCKVSNKGLPSSIEKTISKAKGQPREPQVYTLPPSQEEMTKNQVSLTCLVKGFYPSDIAVEWESNGQPENNYKTTPPVLDSDGSFFLYSRLTVDKSRWQEGNVFSCSVMHEALHNHYTQKSLSLSPGK light: not shown	–	IC50 of inhibition of Ca-flux induced by 18 nM CCL19, Chem-1 CCR7h cells [4]: ~20 nM; IC50 [5]: 4.9 to 7.6 nM
